According to PMC6923591:

Key:
[1] = target: Ptpn6 Y208N C-SH2 domain (recombinant C-terminal SH2 domain of Ptpn6/SHP-1 with Y208N); assay: ITC
[2] = target: Ptpn6 wt C-SH2 domain (recombinant C-terminal SH2 domain of Ptpn6/SHP-1); assay: ITC

Kd [1]: 10.4 µM | Kd [2]: 20.1 µM
Substance: FcγR2b phosphopeptide
